Laboratory results taken from PMC9284671 (Structure (London, England : 1993), 2022).

Experiments:
Experiment in all cases: ELISA
[1] = target: MERS-CoV S2P (pre-fusion-stabilized soluble spike) (MERS-CoV EMC/2012 (GenBank AFS88936), UniProt K0BRG7, stabilised)
[2] = target: RaTG13 S2P (pre-fusion-stabilized soluble spike) (Bat coronavirus RaTG13 (GenBank …, UniProt A0ABF7PLN6, stabilised))
[3] = target: WIV1 S2P (pre-fusion-stabilized soluble spike) (Bat SARS-like coronavirus WIV1, UniProt U5WI05, stabilised)
[4] = target: SHC014 S2P (pre-fusion-stabilized soluble spike) (Bat SARS-like coronavirus RsSHC014, UniProt U5WLK5, stabilised)
[5] = target: SARS-CoV S2P (pre-fusion-stabilized soluble spike) (SARS-CoV Urbani, UniProt P59594, stabilised)

Measured: binding result

B1: WS6 (monoclonal antibody, IgG) (antibody, V domains shown)
VH: EVQFQQSGTVLARPGASVKMSCKASGYTFTNYWIHWVKQRPGQGLEYIGGTYPGNGDTTYNQKFKGKAKVTAVTPTSTAYMDLSSLTNEDSAVYYCTRTGSYFDYWGQGTTLTVSS
VL: QIVLTQSPAIMSASPGEKVTISCSATSSVSYIYWYQQRPGSSPKPWIYRTSNLASGVPVRFSGSGSGTSYSLTISNMEAEDAATYYCQQYQSYPPTFGAGTKLELK
binds: all assays above
